B1: full length ADAR1 p110, wild type (FLAG-tagged and HA-tagged copies) [human] / itself (parent complex)
chain: MAEIKEKICDYLFNVSDSSALNLAKNIGLTKARDINAVLIDMERQGDVYRQGTTPPIWHLTDKKRERMQIKRNTNSVPETAPAAIPETKRNAEFLTCNIPTSNASNNMVTTEKVENGQEPVIKLENRQEARPEPARLKPPVHYNGPSKAGYVDFENGQWATDDIPDDLNSIRAAPGEFRAIMEMPSFYSHGLPRCSPYKKLTECQLKNPISGLLEYAQFASQTCEFNMIEQSGPPHEPRFKFQVVINGREFPPAEAGSKKVAKQDAAMKAMTILLEEAKAKDSGKSEESSHYSTEKESEKTAESQTPTPSATSFFSGKSPVTTLLECMHKLGNSCEFRLLSKEGPAHEPKFQYCVAVGAQTFPSVSAPSKKVAKQMAAEEAMKALHGEATNSMASDNQPEGMISESLDNLESMMPNKVRKIGELVRYLNTNPVGGLLEYARSHGFAAEFKLVDQSGPPHEPKFVYQAKVGGRWFPAVCAHSKKQGKQEAADAALRVLIGENEKAERMGFTEVTPVTGASLRRTMLLLSRSPEAQPKTLPLTGSTFHDQIAMLSHRCFNTLTNSFQPSLLGRKILAAIIMKKDSEDMGVVVSLGTGNRCVKGDSLSLKGETVNDCHAEIISRRGFIRFLYSELMKYNSQTAKDSIFEPAKGGEKLQIKKTVSFHLYISTAPCGDGALFDKSCSDRAMESTESRHYPVFENPKQGKLRTKVENGEGTIPVESSDIVPTWDGIRLGERLRTMSCSDKILRWNVLGLQGALLTHFLQPIYLKSVTLGYLFSQGHLTRAICCRVTRDGSAFEDGLRHPFIVNHPKVGRVSIYDSKRQSGKTKETSVNWCLADGYDLEILDGTRGTVDGPRNELSRVSKKNIFLLFKKLCSFRYRRDLLRLSYGEAKKAARDYETAKNYFKKGLKDMGYGNWISKPQEEKNFYLCPV

From PMC11582362 (2023) come the findings set out here.

Variants of B1 are the subject of the test. As to the kind of experiment: co-immunoprecipitation (anti-FLAG IP, anti-HA western blot, bands quantified with ImageJ); HEK293T cells; in the presence of RNases; n = 3; parent: 70; read off a plot.
chain 1 V452A, chain 1 D453Q, chain 1 W473V, chain 1 C478S: the response is ~10%.
